Series [1] has as its target Regulator of Photosynthesis and Photopigment-related gene expression A (RppA), full-length, MBP-tagged (Synechocystis sp. PCC 6803) (UniProt Q55933). Kind of series: non-reducing urea-SDS/PAGE; 2.5 µM RppA with 2 mM diamide, 30 min, room temperature; non-reducing SDS-6 M urea-8% PAGE.
Series [2] shares this target. Kind of series: SEC; RppA oxidised with 2 mM diamide, desalted; 0.85 mg on Superdex S200 10/300GL Increase; 100 mM HEPES pH 8.0, 100 mM NaCl; approximate masses from a calibration curve.
The target in series [3] is Regulator of Phycobilisome Association B (RpaB), full-length, MBP-tagged (Synechocystis sp. PCC 6803). The series is described as follows: non-reducing urea-SDS/PAGE; 2.5 µM Rre1, RpaA or RpaB, air-exposed untreated or with 2 mM diamide or 2 mM H2O2, 30 min, room temperature; non-reducing SDS-6 M urea-8% PAGE; shows disulfide-linked oligomers.
Series [4] shares this target. The series is described as follows: SEC; RpaB oxidised with 2 mM H2O2, desalted; 0.85 mg on Superdex S200 10/300GL Increase; 5% glycerol, 300 mM NaCl, 100 mM HEPES pH 8.0; approximate masses from a calibration curve. A general note: SEC sorts molecules by how far they enter the pores of the column.
Series [5] deals with the molecule itself. The series is described as follows: SEC; Rre1 or RpaA oxidised with 2 mM H2O2, desalted; 0.85 mg on Superdex S200 10/300GL Increase; 100 mM HEPES pH 8.0, 100 mM NaCl; approximate masses from a calibration curve.

Several values for one entry are separate records, joined by “and”; a condition that tells them apart may be missing. Equal values may be shown once.

What is called stoichiometry N is a count of units in the complex or per binding partner. For “Regulator of Photosynthesis and Photopigment-related gene expression A (RppA), full-length, MBP-tagged (from UniProt Q55933 1-234) (natural protein)”, the stoichiometry N in series [1] and in series [2] was 3 in each case.
Consider “Regulator of Phycobilisome Association B (RpaB), full-length, MBP-tagged (natural protein)”, for which the stoichiometry N in series [3] is 2; in series [4], 4 and 3.

B1: Response Regulator 1 (Rre1), full-length, MBP-tagged (natural protein, Synechocystis sp. PCC 6803, UniProt P72781 1-231, looked up)
chain: MAEPISLLLVDDEPGVRESVQAFLEDSGDFKVDLAANATEAWDYLQHHLPALVISDIMMPQVDGYQFLQKLREDARFQSLPVVFLTARGMTGDRIQGYQTGCDAFLSKPFDPDELEAIVRNLLARQQASSDAGSESAKLQEIYQEIRALKEQIGQPSGIHTTPSPIKLDFTPREQSVLDLVSQGLMNKEIAAQLKTSVRNVEKYVSRLFTKTGTNSRTELVRFALQHGLTE
notes: Rre1 (response regulator 1), Synechocystis sp; Cloned KpnI/XhoI into pETG-41A; theoretical mass of the MBP-tagged monomer printed as 75 kDa
For B1, the “stoichiometry N” value in series [5] was 3 and 4.

(Values after publication PMC9321951, “Thiol redox switches regulate the oligomeric state of cyanobacterial Rre1, RpaA and RpaB response regulators” (Febs Letters, 2022).)
